The results in this text go back to patent US20160152995A1, “METHODS AND COMPOSITIONS TO IMPROVE THE SPREAD OF CHEMICAL SIGNALS IN PLANTS” (PIONEER HI-BRED INTERNATIONAL, INC., priority 2013, published 2016).

Numbering of substitutions follows the chain as printed.

The chains are these.
B1: CsL4.2-22 (protein)
chain: MARLDKSKVINSALELLNEVGIEGLTTRKLAQKLGVEQPTLYWHVKNKRALLDALAIEMHDRHQTHYLPLEGESWQDFLRNFAKSMRRALLSHRDGAKIALGTRWTEQQYETAENMLAFLTQQGFSLENALYATDAVRVFTLGAVLLDQEQQVAKEERETPTPDSMPPLLRQAWELKDHQGAEPAFLFGLELIIAGLEKQLKRESGSHHHHHH
modifications: Sulfonylurea responsive repressor
B2: CsL4.2-11 (protein)
chain: B1 chain with Q64G, F78Y, I99V, A100S, D135S, P163T, D178E, K202X
modifications: not fully specified; Sulfonylurea responsive repressor; VARIANT 202: Xaa = Any Amino Acid
B3: CsL4.2-27 (protein)
chain: B1 chain with H60M, R88C, I99V, A100S, S165R, R171Q, D178E, E204D
modifications: Sulfonylurea responsive repressor
B4: CsL4.2-07 (protein)
chain: B1 chain with F78Y, R88C, D178V
modifications: Sulfonylurea responsive repressor
B5: CsL4.2-16 (protein)
chain: B1 chain with H60M, F78Y, R88C, I99V, A100S, Q151G, K155N, S165R, D178V
modifications: Sulfonylurea responsive repressor
B6: CsL4.2-17 (protein)
chain: B1 chain with H60M, F78Y, R88C, I99V, D135S, P163T, D178V
modifications: Sulfonylurea responsive repressor
B7: CsL4.2-21 (protein)
chain: B1 chain with H60M, Q64G, F82Y, I99V, F119C, D135S, K155N, P163T, D178V
modifications: Sulfonylurea responsive repressor
B8: CsL4.2-30 (protein)
chain: B1 chain with I99V, D135S, Q151G, K155N, D178V
modifications: Sulfonylurea responsive repressor
B9: CsL4.2-04 (protein)
chain: B1 chain with R88C, I99V, K155N, E157G, P163T, D178E
modifications: Sulfonylurea responsive repressor
B10: CsL4.2-24 (protein)
chain: B1 chain with F78Y, R88C, I99V, D135S, Q151G, K155N, D178V
modifications: Sulfonylurea responsive repressor
B11: CsL4.2-26 (protein)
chain: B1 chain with F78Y, R88C, I99V, A100S, D135S, S165R, D178V
modifications: Sulfonylurea responsive repressor
B12: CsL4.2-23 (protein)
chain: B1 chain with H60M, F78Y, R88C, I99V, D135S, S165R, D178V
modifications: Sulfonylurea responsive repressor
B13: CsL4.2-28 (protein)
chain: B1 chain with H60M, F78Y, R88C, I99V, D135S, E156Q, D178V
modifications: Sulfonylurea responsive repressor
B14: CsL4.2-18 (protein)
chain: B1 chain with H60M, R88C, I99V, D135S, S165R, D178V, I193L
modifications: Sulfonylurea responsive repressor
B15: CsL4.2-12 (protein)
chain: B1 chain with Q64G, I99V, D135S, Q151G, K155N, P163T, D178V
modifications: Sulfonylurea responsive repressor
B16: CsL4.2-01 (protein)
chain: B1 chain with F78Y, I99V, Q151G, P163T, D178V
modifications: Sulfonylurea responsive repressor
B17: CsL4.2-20: Chlorsulfuron (Cs) repressor, top hit of library CsL4.2 (protein)
chain: MARLDKSKVINSALELLNEVGIEGLTTRKLAQKLGVEQPTLYWHVKNKRALLDALAIEMHDRHQTHYLPLEGESWQDFLRNFAKSMRLALLSHRDGAKVSLGTRWTEQQYETAENMLAFLTQQGFSLENALYATDAVRVFTLGAVLLDQEQQVAKEERETPTPDSMPPLLRQAWELKVHQGAEPAFLFGLELIIAGLEKQLKRESGS
modifications: Sulfonylurea responsive repressor
B18: CsL4.2-08 (protein)
chain: B1 chain with H60M, I99V, Q123H, D178V, H210Q
modifications: Sulfonylurea responsive repressor

For one data set, the system named is E. coli assay strain Km3. In words: Liquid B-galactosidase assays of chlorsulfuron repressor hits (induction and repression). To be noted: CsL4.2 hits; 20 ppb Cs vs no inducer. On the procedure: In order to create new diversity for shuffling the top clone from CsL3 was subjected to error prone PCR mutagenesis using Mutazyme (Stratagene). The mutated PCR product encoding the CsR ligand binding domain was inserted into library expression vector pVER7334 as a Sac1 to Asc1 fragment, transformed into library strain Km3 and plated onto LB+40 ug/ml Kanamycin and 50 ug/ml Carbenecillin. Approximately 10,000 colonies were then replica plated onto M9 Xgal assay medium +/−20 ppb Cs. Putative hits were then re-arrayed and replica plated onto the same assay medium. Performance was gauged by the level of blue colony color after 24 hrs incubation on inducer (induction) and 72 hrs incubation without inducer (repression). The top hits were then subjected to liquid B-galactosidase assays for quantitative assessment (Table 21).
Seventh round library CsL4.2 was designed based on the best diversity from CsL3 and CsL3-MTZ library screens (Table 14). The library was assembled with oligonucleotides shown below in Table 22. The first and last primers were used as rescue primers. CsL4.2 included a C-terminal 6×His-tag extension to facilitate protein purification. The library was assembled and cloned into vector pVER7334 Sac1 to Asc1, transformed into library assay strain Km3 and plated onto LB+40 ug/m1 Kanamycin and 50 ug/ml carbenecillin. Approximately 8,000 colonies were re-arrayed into 384-well format and replica plated onto M9 Xgal assay medium +/−2 ppb Cs. Putative hits were re-arrayed in 96-well format onto the same media for re-testing. Confirmed hits were then tested for induction and repression aspects in liquid culture using B-galactosidase assays.
Mutagenesis reactions were transformed into E. coli assay strain Km3 and plated onto LB+50 ug/ml Carbenecillin. Colonies were then re-arrayed into 384 well format and replica plated onto M9 Xgal assay medium +/−5 ppb Chlorsulfuron. Putative hits were then re-arrayed and analyzed by B-galactosidase assays relative to the parent clones (FIG. 10).
Take B1: the “F. IND = fold induction (IND/REP) (B-galactosidase)” value (shortened to “F. IND = fold induction (IND/REP)”) is given as 20.8.
On the same count and under the same terms, next, B2: 8.9; B3: 9.1; B4: 18.9.
Still for that read-out and setting: next, B5: 15.2.
Still for that read-out and setting: to B6 belongs 9.7; to B7, 13.2; to B8, 10.8.
For the molecule B9, the “F. IND = fold induction (IND/REP)” value turned out to be 10.2.
Regarding B10, the “F. IND = fold induction (IND/REP)” value came to 14.3.
The same measure, in the same setting: to B11 belongs 10.6; to B12, 10.5; to B13, 11.3.
Same read-out and setting: to B14 belongs 9.3; to B15, 9.5; to B16, 9.8.

The same data set, now with this note: CsL4.2 hits; liquid B-galactosidase assay, 20 ppb Cs.
With B17, the “IND = induction with 20 ppb CS (B-galactosidase)” value (shortened to “IND = induction with 20 ppb CS”) turned out to be 7.4.
For the molecule B1, the “IND = induction with 20 ppb CS” value is listed as 5.4.
On to B2, for which the “IND = induction with 20 ppb CS” value turned out to be 4.8.
With B3, the “IND = induction with 20 ppb CS” value is 3.2.
On the same count and under the same terms, to B4 belongs 6.5; to B5, 3.8.
The same measure, in the same setting: next, B6: 3.1.
The same measure, in the same setting: next, B7: 3.2.
In the case of B8, the “IND = induction with 20 ppb CS” value came to 4.9.
With B18, the “IND = induction with 20 ppb CS” value is reported as 10.7.
On to B9, for which the “IND = induction with 20 ppb CS” value was 4.3.
For B10, the “IND = induction with 20 ppb CS” value is given as 5.4.
Regarding B11, the “IND = induction with 20 ppb CS” value is 3.1.
The same measure, in the same setting: to B12 belongs 10.4; to B13, 5.3; to B14, 6.8.
Regarding B15, the “IND = induction with 20 ppb CS” value is 6.4.
For B16, the “IND = induction with 20 ppb CS” value stood at 3.8.

Still in this data set, the particulars now being: CsL4.2 hits; liquid B-galactosidase assay, no inducer.
For B17, the “REP = repression in absence of inducer (B-galactosidase)” value (“REP = repression in absence of inducer” below) is 0.2.
B1: the “REP = repression in absence of inducer” value was 0.3.
The same measure, in the same setting: next, B2: 0.5; B3: 0.4; B4: 0.3.
On the same count and under the same terms, to B5 belongs 0.3; to B6, 0.3.
For the molecule B7, the “REP = repression in absence of inducer” value is 0.2.
With B8, the “REP = repression in absence of inducer” value is given as 0.5.
Consider B18, for which the “REP = repression in absence of inducer” value is recorded as 0.7.
Take B9: the “REP = repression in absence of inducer” value is recorded as 0.4.
The same measure, in the same setting: to B10 belongs 0.4.
Regarding B11, the “REP = repression in absence of inducer” value amounted to 0.3.
On the same count and under the same terms, to B12 belongs 1.0; to B13, 0.5; to B14, 0.7.
For B15, the “REP = repression in absence of inducer” value was 0.7.
B16: the “REP = repression in absence of inducer” value worked out at 0.4.
